This data set can be described thus: yeast display, Sf9 membrane polyspecificity reagent, FACS + sequencing; frameworks hold sequencing errors. An outline of the steps: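 Nanobodies came from a synthetic yeast display library in Saccharomyces cerevisiae BJ5465, induced with galactose for 36–48 hours and stained for 1 hour at 4 °C with 10% biotinylated, detergent-solubilized Sf9 membrane reagent. Cells were enriched on streptavidin microbeads and then FACS-sorted, with low and high (top ~1%) gates set on anti-HA fluorescence for expression and streptavidin fluorescence for reagent binding. Each polyreactivity label reflects the gate a clone came from. Genes were amplified by colony PCR, sequenced by MiSeq 2 × 250 and filtered by CDR length.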
Turning to “QVQLVESGGGIVQAGGSLRLSCAASGSTFGWYAMGWYRPAPGKERELVAAISTSGNTYYADSVKGRFTISRDNAKNTVYLQLNSLKPEDTAVYYCAKYVNPDHDYWGQGTQVTVSS”, the “polyreactivity (PSR sort gate)” value is given as “low polyreactivity”.

For “QVQLVESGGGIVQAGGSLRLSCAASGSTFSYNAMGWYRQAPGKERELVAAISRGGITNYADSVKGRFTISRDNAKNTVYLQMNSLKPEDTAVYYCNAGYLGGPSYEYWGQGTQVTVSS”, the “polyreactivity (PSR sort gate)” value is “low polyreactivity”.

Take “QVQLVESGGGIVQAGGSLRLSCAASGSTFVGNAMGWSRQAPGKERELVAAISRTGGSTYYADSVKGRFTISRDNEKNTVYLQMNSLIPEDSAVYYCNAYTRYSSRRGIGDSWGQGTQVTVSS”: the “polyreactivity (PSR sort gate)” value is on record as “high polyreactivity”.

“QVQLVESGGGIVQAGGSLRLSCAASGSTFVIYTMGWYRPAPGKERELVAAISWSGGITRYADSVKGRFTISRDNAKNTVYLQMNSLKPEDSAVYYCNASQWPSRFDYWGQGTQVTVSS”: the “polyreactivity (PSR sort gate)” value was “low polyreactivity”.

Turning to “QVQLVESGGGIVQAGGSLRLSCAASGSTFYSYAMGFYRQAPGKERELVAAISWDGGRTYYADSVKGRFTISRDNAKNTVYLQMNSLKPEDTAVYYCAAAYPTYRHYYWGQGTQVTVSS”, the “polyreactivity (PSR sort gate)” value is “low polyreactivity”.

For “QVQLVESGGGIVQAGGSLRLSCAASGSTIDHYTMGWYSQAPGKERELVAAINRIGDSTYYADSVKGRFTISRDNAKNTVYLQMYSVNPEDTAVYYCAARHVPRFKNYGYWGQGTQVTVSS”, the “polyreactivity (PSR sort gate)” value is recorded as “high polyreactivity”.

For the sequence “QVQLVESGGGIVQAGGSLRLSCAASGSTIGGYAMGWYRQAPGKERELVAAIRRSGDSTYYADSVKGRFTISRDNAKNTVYLQMNSLKPEDTAVYYCNTDRTHSYQYGGYDYWGQGTQVTVSS”, the “polyreactivity (PSR sort gate)” value was “low polyreactivity”.

Consider “QVQLVESGGGIVQAGGSLRLSCAASGSTIRYYAMGWYRQAPGKERELVAAITYSGTRTYYADSVKGRFTISRDNAKTTVYLQMNSLKPEDTAVYYCNAVAKHRGVGIYTPYDYWGQGTQVTVSS”, for which the “polyreactivity (PSR sort gate)” value is listed as “high polyreactivity”.

In the case of “QVQLVESGGGIVQAGGSLRLSCAASGSTLNSYVMGWYRQAPGKERELVATIRSGSSTNYADSVKGRFTISRDNAKYPDYLLMNSLKPEDTAVYSCAADAYSLCYDSWGQGTQVTVSS”, the “polyreactivity (PSR sort gate)” value is “low polyreactivity”.

Take “QVQLVESGGGIVQAGGSLRLSCAASVFTFLHNTMGWYRQAPGKERELVAAISIGGRTYYADSVKGRFTISRDIAKKTVYLQMNSLKPEDTAVYYCAKLSGGQSPGYDYWGQGTQVTVSS”: the “polyreactivity (PSR sort gate)” value is “high polyreactivity”.

In the case of “QVQLVESGGGIVQAGGSLRLSCAATGRIFTGYTMGWYRQAPGKERELVAAISQSGGRTYYADSVKGRFTISRDNAKHTVYLQMNSLKPEDTAVYYCAAVWSRTGYDYCGQGTQVTVSS”, the “polyreactivity (PSR sort gate)” value is “high polyreactivity”.

Take “QVQLVESGGGIVQAGGSLRLSCAGSGSIVSGYTMGWYRQEPGKERELVAAITRSGGRTYYADSVKGRFTISRDYAKNTVYLQMNSLKPEDTSVYYCAAVDRRGANYNYWGQGTQVTVSS”: the “polyreactivity (PSR sort gate)” value is listed as “high polyreactivity”.

With “QVQLVESGGGIVQAGGSLRLSCDASGSIFNYYTMGWYRQEPGKERELVAAISYRGGRTYYADSVKGRFTISRDNAKNTVYLQMNSLKPEDTAVYYCAAGWLLYVFFPREYYYWGQGTQVTVSS”, the “polyreactivity (PSR sort gate)” value is “high polyreactivity”.

With “QVQLVESGGGIVQAGGSLRLSSAASGRTFYVYTMGWYRQAPGKERELVAAITSGGSTNYADSVKGRFKISRDNAKNTVYLQMNSLKPEDTAVYYCAARFSTVFKRYYYWGQGTQLTVSS”, the “polyreactivity (PSR sort gate)” value is recorded as “high polyreactivity”.

In the case of “QVQLVESGGGIVQAGGSLRLSWAASGRNFYRNAMGWYRQAPGKERELVAAISRSGGSTYYADSVKGRFTISRDNAKNTVYLQMNSLKAADTAVYYFNAYRYLQSGPPRYREHGSWGQGTQVNVSS”, the “polyreactivity (PSR sort gate)” value was “low polyreactivity”.

Regarding “QVQLVESGGGIVQAGGSLSLRCAASGRIFITNAMGWNRQAPGKERELVAAIRRRGGNTYYADSVKGRFTISRDNGKNTVYLLMNSLKPEDSAVYYCAVYPRPYNYNYWGQGTQVTVSS”, the “polyreactivity (PSR sort gate)” value is “high polyreactivity”.

As to “QVQLVESGGGIVQAGVSLRLSCAASGSTFWDNDMGWYRPAPGKERELVAVISWDDGSTYYADSVKGRFTISRDNAKNTVYLQMNSLKPEDTAVYYCAADAYYALFPSWTVGDCPYYYWGQGTQVTVSS”, the “polyreactivity (PSR sort gate)” value is given as “high polyreactivity”.

As for “QVQLVESGGGIVQEGGSLRLSCAASGRTFGLNVMGWYRQAPGKERELVATISWSGGTTYYADSVKGRYTISRDNAKNTVYFQMKSLKPEDTGVYYCNRQVTWYPTGGYWGQGTQVTVSS”, the “polyreactivity (PSR sort gate)” value is reported as “low polyreactivity”.

Regarding “QVQLVESGGGIVQSGGSLRLSCDASGFIFGGNAMGWYIQAPGKERELVARISSGGITSYADSVKGRFTISRDNAKNTVYLHMNSQKPDDTAVYYCAARNGRIAWMNYWGQGTQVTVSS”, the “polyreactivity (PSR sort gate)” value is given as “low polyreactivity”.

For the sequence “QVQLVESGGGKVQAGGSLRLSCAASGNTFTSNALGWYRQAPGKERELVAAISISGSTNYADSVKGRFTISRDNAKNSVYLQMNSLKPEDTAVYSCAARVGYTAWRRYNYWGQGTQVTVSS”, the “polyreactivity (PSR sort gate)” value is recorded as “high polyreactivity”.

“QVQLVESGGGKVQEGGSLRLSCAASGRTLAPYAMGWYRQAPGKERELVAISTIGGTTYYADSVKGRFTISRDNAKNTVYLQMNSLKPEDTAVYYGAADGNSTGVYLDGGEGFAYDYWGQGTQVTVSS”: the “polyreactivity (PSR sort gate)” value is reported as “low polyreactivity”.

Take “QVQLVESGGGLAQAGGSLRLSCAASGLIFYYNAMGWYRQAPGKERELVAAISSSGGRTYYADSVKGRFTISRDNAKNTVYLQMNSLKPEDTAVYYCAATSYGYGSRYDYWGQGTQVTVSS”: the “polyreactivity (PSR sort gate)” value is recorded as “high polyreactivity”.

For the sequence “QVQLVESGGGLAQAGGSLRLSCAASGRIFSVNVMGWYRQAPGKERELVAAITWSVGSTYYADSVKGRFTISRDNAKNTVYLQMNSLKPEDTAVFYCAARVPPVYGRVGGYHYWGQGTQVTVSS”, the “polyreactivity (PSR sort gate)” value is on record as “low polyreactivity”.

For “QVQLVESGGGLDLAGGSLRLSCAASGRTCGYNAMGWYRQAPGKERELVATISWGGGSTYYADSVKGRFTISRDNAKNSVYLQMNSLKPEDTAVYYCNKVHYGRRHSYSGAIYGEDYWGQGTQVTVSS”, the “polyreactivity (PSR sort gate)” value is “high polyreactivity”.

Regarding “QVQLVESGGGLDPAGGSLRLSCAASGSTFQYNAKGWYRQAPGKERELVAAISGSGGSTYYADSVKGRFTISRDNAKNTVYLQMNSLKPEDTAVYYCNADVSALWWPEEWYNASEFDYWGQGTQVTVSS”, the “polyreactivity (PSR sort gate)” value is reported as “low polyreactivity”.

“QVQLVESGGGLDQAEGSLRLSCAASGSKINHYARGWYRQAPRKERELVAAITKSGGSTYADSVKGRFTISRDNAKNTVYLKMNSRKPEDTAVYYCAAGRRIYGTKGRGDYWGQGTQVTVSS”: the “polyreactivity (PSR sort gate)” value is listed as “low polyreactivity”.

For the sequence “QVQLVESGGGLDQAGGRLRLSCAASGFTFNYNAMGWYRQATGKERELVAAISRSGGRTYYADSVKGRFTISRDNAKNTVYLQMNSLKPEDTAVYYCAADSGTNGYDYWGQGTQVTVSS”, the “polyreactivity (PSR sort gate)” value is recorded as “high polyreactivity”.

On to “QVQLVESGGGLDQAGGSHRLSCAASGRIFTYNAIGWYRQAPGKERELVAAISRRGGTTYYADSVKGRFTISRDNAKNTVYLQMNSLKPEDTAVYYCAAVVFTRGVTSRTVSRYDYWGQGTLVTVSS”, for which the “polyreactivity (PSR sort gate)” value is recorded as “high polyreactivity”.

Turning to “QVQLVESGGGLDQAGGSLPLSCAASGLTFSSYAMGWYRQAPGKESELVATITSSGGDNTNYADSVKGRFTISRDNAKNTVYLQMNSLKPEDTAVYYCNKEGQQSYRWRMDYWGQGTQVTVSS”, the “polyreactivity (PSR sort gate)” value was “low polyreactivity”.

On to “QVQLVESGGGLDQAGGSLRLICAASGSTFRYNAMGWYRQAPGKERELVAAISSSGGSTRYADSVKGRFTISRDNAKNTVYLQMNSLKPEDTAVYYCAVRFYDWRYYYWGQGTQVTVSS”, for which the “polyreactivity (PSR sort gate)” value was “high polyreactivity”.

In the case of “QVQLVESGGGLDQAGGSLRLICAASGTTFSPYAMGWYRQAPGKQRELGANITISGGSTFYADSVKGRFTISRDYAKNTDYLQMKSLKPEDTAVDYCNADSLIRWLFTVVIFDYCGQGTQVTVSS”, the “polyreactivity (PSR sort gate)” value is listed as “low polyreactivity”.

For “QVQLVESGGGLDQAGGSLRLSCAACGIIFYVYDMGGYRQAPGKERELVPISGSSTYYADSVKGRFTISRDNAKNSVYLQMNSLKPEDTAVYYWSADGVELYDYWGQGTQVTVSS”, the “polyreactivity (PSR sort gate)” value is “low polyreactivity”.

Take “QVQLVESGGGLDQAGGSLRLSCAASGFIFAYNTMGWYRQAPGKERELVATIRWSGGRTYYADSVKGRFTISRDNAKNSVYLQMNSLKPEDTAVYYCAKRAFSYVGGQQDRKENYYYWGQGTQVTVSS”: the “polyreactivity (PSR sort gate)” value is reported as “high polyreactivity”.

On to “QVQLVESGGGLDQAGGSLRLSCAASGFIFTVYAMGWYRQAPGKEREVVAAISSGGSTYYADSVKGRFTISRDNAKNTVYLQMNSLKPEDTADYYCAAQPSYRYYKSYDSWGQGTQVTVSS”, for which the “polyreactivity (PSR sort gate)” value is reported as “high polyreactivity”.

On to “QVQLVESGGGLDQAGGSLRLSCAASGFTFAYNARGRYRQAPGKERELVAAITTRGGGTYYADSVKGRFTISRDNAKYTVYLQMNSLKPEDTAVYYCAAKKSRYPYNYWGQGTQVTVSS”, for which the “polyreactivity (PSR sort gate)” value is “high polyreactivity”.

In the case of “QVQLVESGGGLDQAGGSLRLSCAASGFTFVDYDIGWYRQATGKERELVAAITYSGGSTSYADSVKGRFTISRDNSKTTFYLQMNSLKPEDTAVYYCAGEPVGEIMDYWGQGTQVTVSS”, the “polyreactivity (PSR sort gate)” value is listed as “low polyreactivity”.

Consider “QVQLVESGGGLDQAGGSLRLSCAASGIIFYVNDMGWYRQAPGKERELVADISGGTSTNYADSVKGRFTISRDNAKNTVYLQMNSLKPEDTAVYYCATAFIVPFPGSDYCGQGTQVTVSS”, for which the “polyreactivity (PSR sort gate)” value was “low polyreactivity”.

For “QVQLVESGGGLDQAGGSLRLSCAASGITVTSYVMGWYRQAHWKERELVAAIRWSGGRTYYADSVKGRFTISRDNAKNTVYLQMNSLKPEDTAVYYCNRVTRSHVDYWGQGTQVTVSS”, the “polyreactivity (PSR sort gate)” value was “high polyreactivity”.

“QVQLVESGGGLDQAGGSLRLSCAASGKTFGNYGMGWYRQAPGKERELVAAISWTGGSTYYADSVKGRFTISRDNAKNTVYLQMNSMKPEDTAVYSCNKRPYLLFDYWGQGTQVTVSS”: the “polyreactivity (PSR sort gate)” value was “high polyreactivity”.

Consider “QVQLVESGGGLDQAGGSLRLSCAASGLIFYTYAMGWYRQAPGKERELVADINRSDGSTYYADSVKGRFTISRDNAKNTVYLQMNSLKPEDTAVYYCAVVGTYYSRFGGRYYYWGQGTQVTVSS”, for which the “polyreactivity (PSR sort gate)” value is recorded as “low polyreactivity”.

As for “QVQLVESGGGLDQAGGSLRLSCAASGRIFGRNAMGWYRQAPGKERELVAAITWSGGSTNYADSVKGRFTISRDNAKNTVYLEMNSLKPEDTAFYYCAKRYTPRPYKGICYYYWGQGTQVTVSS”, the “polyreactivity (PSR sort gate)” value is “high polyreactivity”.

The values above are taken from the nanobody polyreactivity screen of Harvey et al. (2022).
